Assay results from patent publication US20160122418A1.

Tests used:
[1] = target: F protein of RSV reference strain RSV-B (ATCC VR 1580) (RSV-B (ATCC VR 1580)) (UniProt P13843); experiment: cell-based or functional assay
[2] = target: F protein of RSV reference strain RSV-A Long (ATCC VR-26) (RSV-A Long (ATCC VR-26)) (UniProt P12568); experiment: cell-based or functional assay
[3] = target: F protein on intact RSV particles (Example 10, strain or isolate not stated) (RSV, strain not stated); experiment: competition ELISA; RSV particles pre-incubated with control mAb at 20 µg/mL (the reference); competitor (coating mAb): AR201
[4] = target: F protein on intact RSV particles (Example 10, strain or isolate not stated) (RSV, strain not stated); experiment: competition ELISA; RSV particles pre-incubated with control mAb at 20 µg/mL (the reference); competitor (coating mAb): palivizumab

Chain of F protein of RSV reference strain RSV-B (ATCC VR 1580) (RSV-B (ATCC VR 1580)) (P13843 26-574): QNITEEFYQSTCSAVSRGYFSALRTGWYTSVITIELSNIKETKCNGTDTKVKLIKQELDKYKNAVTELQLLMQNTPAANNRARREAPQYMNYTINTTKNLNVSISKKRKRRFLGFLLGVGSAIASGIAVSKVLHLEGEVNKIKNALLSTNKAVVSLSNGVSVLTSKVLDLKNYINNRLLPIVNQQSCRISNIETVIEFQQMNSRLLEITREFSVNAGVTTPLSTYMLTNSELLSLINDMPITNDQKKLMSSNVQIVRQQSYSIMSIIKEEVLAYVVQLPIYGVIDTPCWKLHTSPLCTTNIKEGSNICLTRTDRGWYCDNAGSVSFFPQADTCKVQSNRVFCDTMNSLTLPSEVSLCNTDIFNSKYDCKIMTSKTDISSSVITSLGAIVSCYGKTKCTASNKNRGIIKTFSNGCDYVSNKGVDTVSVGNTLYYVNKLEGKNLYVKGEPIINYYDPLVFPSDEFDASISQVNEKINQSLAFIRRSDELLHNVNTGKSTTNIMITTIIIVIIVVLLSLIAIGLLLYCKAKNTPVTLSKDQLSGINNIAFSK
Chain of F protein of RSV reference strain RSV-A Long (ATCC VR-26) (RSV-A Long (ATCC VR-26)) (P12568 26-574): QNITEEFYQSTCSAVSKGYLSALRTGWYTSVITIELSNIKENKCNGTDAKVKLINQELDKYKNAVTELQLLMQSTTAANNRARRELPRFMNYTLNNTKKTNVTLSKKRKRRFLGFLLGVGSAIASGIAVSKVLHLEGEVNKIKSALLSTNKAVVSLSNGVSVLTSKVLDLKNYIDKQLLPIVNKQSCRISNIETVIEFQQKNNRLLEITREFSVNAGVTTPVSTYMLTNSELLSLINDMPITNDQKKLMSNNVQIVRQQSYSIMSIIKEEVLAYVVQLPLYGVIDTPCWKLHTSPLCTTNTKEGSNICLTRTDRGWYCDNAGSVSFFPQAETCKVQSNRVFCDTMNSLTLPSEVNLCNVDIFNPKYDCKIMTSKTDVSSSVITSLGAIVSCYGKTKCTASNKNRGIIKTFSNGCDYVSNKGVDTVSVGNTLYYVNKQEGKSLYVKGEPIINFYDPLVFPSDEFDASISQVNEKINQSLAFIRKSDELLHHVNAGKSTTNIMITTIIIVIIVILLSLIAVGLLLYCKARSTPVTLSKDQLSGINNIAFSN

For palivizumab (antibody), which Estimated half-maximal effective antibody concentration (ng/mL), plaque neutralization on Vero cells [1] is on record?
Its Estimated half-maximal effective antibody concentration (ng/mL), plaque neutralization on Vero cells is 200 ng/mL.

And the Estimated half-maximal effective antibody concentration (ng/mL), plaque neutralization on Vero cells [2]?
Its Estimated half-maximal effective antibody concentration (ng/mL), plaque neutralization on Vero cells is 100 ng/mL.

Which results are given for “unrelated fully human monoclonal IgG1 antibody (control)”?
% binding of RSV to the coating mAb relative to control IgG [3]: 100%; % binding of RSV to the coating mAb relative to control IgG [4]: 100%; Estimated half-maximal effective antibody concentration (ng/mL), plaque neutralization on Vero cells [1]: > 1000 ng/mL; Estimated half-maximal effective antibody concentration (ng/mL), plaque neutralization on Vero cells [2]: > 1000 ng/mL
